± gives the standard deviation of the averaged measurements.
System: ATP
Assay: switch fluorescence ratio, 500 uM ATP over buffer (Cy3 cluster intensity, sum of 5 cycles each) (fold (ratio)); higher = stronger signal-on switching upon ATP binding; sequences stand for … in TCGTCGGCAGCGTCAGATGTGTATAAGAGACAGTTTTTTTTTTTTTTTTTTTTTTTTT…TC
Details: aptamer strand: ATP DNA aptamer (quencher-CACCTGGGGGAGTATTGCGGAGGAAGG + anchor), 100 nM annealed; ATP concentration: 500 uM
Procedure, shortened: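 The fluorescence ratio divides summed target-cycle Cy3 intensity by summed buffer-cycle Cy3 intensity for each cluster and is averaged per switch-domain sequence. Cy3-labelled switching-strand clusters on a modified Illumina MiSeq flow-cell were annealed to 100 nM quencher-labelled ATP aptamer, then imaged in selection buffer and again after 15 min with 500 uM ATP at 22 °C. Five such cycles were run, with NaOH stripping and re-annealing between them, and clusters outside 100-1000 RFU were excluded.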
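Note: ATP exposure 15 min at 22 °C before imaging.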

Row | Sequence | switch fluorescence ratio
1 | TTCCGGGGAA | 1.16 ± 0.21
2 | TACATATGTC | 1.04 ± 0.077
3 | GGTTTTAACA | 1 ± 0.051
4 | GATTTTTAGT | 1.002 ± 0.0016
5 | ACAGGGTGTC | 1.05 ± 0.031
6 | ATCTGATGGC | 0.957 ± 0.039
7 | GGGGCTTAGT | 1.03 ± 0.017
8 | CAGGGGGGGT | 1.03 ± 0.061
9 | TCTTGGAGAA | 1.05 ± 0.06
10 | TTCAGTTTTG | 0.982 ± 0.024
11 | TACTATGGTC | 1.01 ± 0.07
12 | GATGGATGAA | 1.016 ± 0.0033
13 | TTTAAATTCG | 1.01 ± 0.014
14 | ACGTGGGGGT | 1.01 ± 0.011
15 | GATCTGCTTC | 1.02 ± 0.026
16 | AGGGGGGTTT | 1 ± 0.024
17 | ATGATGGTTC | 1.01 ± 0.012
18 | TAGAATGGAA | 1.02 ± 0.012
19 | AGAGACCCCG | 0.971 ± 0.039
20 | AATTAACCCA | 1.05 ± 0.051
21 | GACTACGGTT | 1.006 ± 0.0095
22 | ATTTGAGGGG | 0.998 ± 0.035
23 | ATTTTTGGCT | 0.995 ± 0.042
24 | AAGATTTTTT | 1.01 ± 0.016
25 | CCTGTGGATC | 1.05 ± 0.042

Row | Sequence | switch fluorescence ratio
26 | GAGAGGCACA | 1.02 ± 0.051
27 | TGTACGACGG | 1.02 ± 0.023
28 | TCTATTTTGT | 0.988 ± 0.017
29 | GTTTCCAATC | 1.02 ± 0.06
30 | CATTATTATG | 1.03 ± 0.036
31 | GGGAGGGTGA | 0.99 ± 0.025
32 | GCCCGCAGAA | 1.76 ± 0.024
33 | AAATTGGCAT | 0.993 ± 0.028
34 | AAGGGTGTTT | 1.01 ± 0.034
35 | TCAGAGACCC | 1.006 ± 0.009
36 | GGGTTGCGTA | 1.006 ± 0.0027
37 | CATGCGGCCG | 0.992 ± 0.02
38 | ACAATTGCGT | 1.05 ± 0.024
39 | AGTGCGGTGG | 1 ± 0.059
40 | TTTAAGGGTA | 0.994 ± 0.023
41 | AGATACAGTT | 1.02 ± 0.034
42 | GTCATGGTAG | 1.02 ± 0.031
43 | AAGAGGGGAC | 0.996 ± 0.056
44 | AAGAGGCTAA | 1 ± 0.036
45 | TCAGTCATCT | 1 ± 0.013
46 | GCTTAGGATT | 1.01 ± 0.033
47 | TGGTAAATGT | 0.97 ± 0.013
48 | GTTTTCAGGG | 1.02 ± 0.037
49 | ACCAATTTGC | 1.05 ± 0.043
50 | ATGATGTAGG | 1.033 ± 0.0075

Row | Sequence | switch fluorescence ratio
51 | CGTGATTTTT | 1 ± 0.041
52 | TGGAATTACT | 1.26 ± 0.36
53 | TCACATTAAG | 1.01 ± 0.037
54 | TAATTGCTTT | 0.966 ± 0.029
55 | AGGGGGAACG | 1.01 ± 0.016
56 | GCGGGTATTG | 0.964 ± 0.038
57 | GCCTAGGCGG | 1.01 ± 0.062
58 | TAATCTGAGT | 1.01 ± 0.025
59 | CGAAGGGTGT | 0.999 ± 0.024
60 | GATTCCGTTG | 1.04 ± 0.016
61 | TGTTTCTCGC | 1.05 ± 0.037
62 | AGCGTACTTT | 1.12 ± 0.018
63 | TCGAATGGGG | 0.961 ± 0.014
64 | GGGCTAGTTC | 1.05 ± 0.077
65 | TCAAAGATAA | 0.98902 ± 2.8e-05
66 | CTTAAAACGT | 1.056 ± 0.0033
67 | GGAGACGGGT | 1.02 ± 0.036
68 | TGTGCGACGG | 0.989 ± 0.021
69 | CGAGGGGGTT | 1 ± 0.02
70 | TGAAGTCG | 0.999 ± 0.027
71 | TGTTCCGGGT | 0.999 ± 0.048
72 | CGGGTTTTTC | 0.972 ± 0.028
73 | TTGGGGTATG | 1.01 ± 0.012
74 | GCACGCGTGC | 1.01 ± 0.044
75 | GCGATTAAAG | 1 ± 0.014

Row | Sequence | switch fluorescence ratio
76 | TGAAAAATTT | 0.988 ± 0.025
77 | GGATGTGCTG | 1.04 ± 0.049
78 | AAATATAAAC | 1.03 ± 0.087
79 | AATAATTAAA | 0.9861 ± 0.0097
80 | CGTTTCTTTT | 0.997 ± 0.02
81 | ACCGGTGTTC | 1.021 ± 0.0069
82 | AAAGTCTGGA | 1.028 ± 0.01
83 | TGGTATAACG | 0.964 ± 0.025
84 | TTTTTAAATG | 0.991 ± 0.017
85 | GTTACCCGA | 0.98 ± 0.016
86 | AGGGTCTCAT | 1.02 ± 0.022
87 | TTATCGGGG | 0.942 ± 0.053
88 | AGTATTGGTT | 0.986 ± 0.021
89 | CCGTTGTTCG | 1.02 ± 0.027
90 | CGGGGGTGGG | 1.01 ± 0.047
91 | GGGGGCTTTT | 1.01 ± 0.034
92 | TAGGGCAAGT | 1.01 ± 0.016
93 | ATGTTAGGG | 0.98 ± 0.011
94 | TGGGGGAGA | 1.04 ± 0.017
95 | TGGGGGATTA | 0.999 ± 0.021
96 | TATTTTAGAA | 0.996 ± 0.016
97 | GGTGTGTAGA | 1.02 ± 0.038
98 | AATTCTAATA | 0.9997 ± 0.0033
99 | GGGGGTCCTA | 0.977 ± 0.0099
100 | TTTACCTAGA | 0.997 ± 0.025

From the supplement of paper PMC10126150
